{"source": "the supplement of paper PMC9170038", "tested_on": "MS2 coat protein", "assay": "apparent KD of MS2 coat protein; designed switch direction (-1 OFF switch, 1 ON switch): -1; higher = weaker reporter binding", "method_in_brief": "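The reported apparent KD is a per-design median over clusters, from curve fits of normalised cluster fluorescence. Protein titrations used SNAP-549-labelled MS2 coat protein, doubled from 0.7 or 1.5 nM to 3 µM, in Tris-HCl pH 7.5 buffer with KCl, MgCl2, BSA, DTT, tRNA and Tween-20, with no input, 200 uM small-molecule ligand, or an oligonucleotide input. The RNA switches were transcribed on Illumina chips by stalled E. coli RNA polymerase.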", "key": {"[1]": {"conditions": "input ligand: microRNA oligo, concentration not stated"}}, "data": [{"sequence": "ACAUGAGGAUCACCCAUGUACAGGGUUUAGUUUCAUCGUUUGAAGGAUAUACUCCGUUAGUUGUUGUAGAAGGUCACAUUUUGG [JR_ExcNG3_Sub005] (Eterna round: R96, puzzle: Exclusion NG 3)", "values": [{"measurement": "apparent KD of MS2 coat protein", "setting": "input ligand: FMN 200 uM", "value": 167, "unit": "nM"}, {"measurement": "apparent KD of MS2 coat protein", "setting": "[1]", "value": 89.2, "unit": "nM"}, {"measurement": "apparent KD of MS2 coat protein", "setting": "input ligand: none", "value": 142, "unit": "nM"}]}, {"sequence": "ACAUGAGGAUCACCCAUGUCAGGCAGGUCCACUCCGGCUGUUGAGGAUAUAGCCCGGUAUCCGCGCUAGAAGGUGAGGGCCGGC [Aenatbe mod 26] (Eterna round: R96, puzzle: Exclusion NG 3)", "values": [{"measurement": "apparent KD of MS2 coat protein", "setting": "input ligand: FMN 200 uM", "value": 15.3, "unit": "nM"}, {"measurement": "apparent KD of MS2 coat protein", "setting": "[1]", "value": 15.7, "unit": "nM"}, {"measurement": "apparent KD of MS2 coat protein", "setting": "input ligand: none", "value": 21.6, "unit": "nM"}]}, {"sequence": "ACAUGAGGAUCACCCAUGUCAGGUUGGUUCUCUCCGGCUGUUGAGGAUAUAGUCCGGUAUCCGCGCUAGAAGGUGAGGGCUGGC [Aenatbe mod 14] (Eterna round: R96, puzzle: Exclusion NG 3)", "values": [{"measurement": "apparent KD of MS2 coat protein", "setting": "input ligand: FMN 200 uM", "value": 19.6, "unit": "nM"}, {"measurement": "apparent KD of MS2 coat protein", "setting": "[1]", "value": 20.1, "unit": "nM"}, {"measurement": "apparent KD of MS2 coat protein", "setting": "input ligand: none", "value": 25.1, "unit": "nM"}]}, {"sequence": "ACAUGAGGAUCACCCAUGUCCGGCUGGUCCGUCUCGGCUGUCGAGGAUAUAGCUUGGUGUCCGCGCUAGAAGGUGGGAGCCGGU [Aenatbe mod 70] (Eterna round: R96, puzzle: Exclusion NG 3)", "values": [{"measurement": "apparent KD of MS2 coat protein", "setting": "input ligand: FMN 200 uM", "value": 61, "unit": "nM"}, {"measurement": "apparent KD of MS2 coat protein", "setting": "[1]", "value": 40.2, "unit": "nM"}, {"measurement": "apparent KD of MS2 coat protein", "setting": "input ligand: none", "value": 56.6, "unit": "nM"}]}, {"sequence": "ACAUGAGGAUCACCCAUGUCCGGCUGGUCCGUCUCGGCUGUCGAGGAUAUGGCUCGGUGUCCGCGCUAGAAGGUGGGAGCCGGU [Aenatbe mod 74] (Eterna round: R96, puzzle: Exclusion NG 3)", "values": [{"measurement": "apparent KD of MS2 coat protein", "setting": "input ligand: FMN 200 uM", "value": 100, "unit": "nM"}, {"measurement": "apparent KD of MS2 coat protein", "setting": "[1]", "value": 54, "unit": "nM"}, {"measurement": "apparent KD of MS2 coat protein", "setting": "input ligand: none", "value": 103, "unit": "nM"}]}, {"sequence": "ACAUGAGGAUCACCCAUGUCCGGCUGGUCUGUCUCGGCUGUCGAGGAUAUAGCACGGUAUCCGCGCUAGAAGGCGGGAGCCGGC [Aenatbe mod 89] (Eterna round: R96, puzzle: Exclusion NG 3)", "values": [{"measurement": "apparent KD of MS2 coat protein", "setting": "input ligand: FMN 200 uM", "value": 99.5, "unit": "nM"}, {"measurement": "apparent KD of MS2 coat protein", "setting": "[1]", "value": 34.6, "unit": "nM"}, {"measurement": "apparent KD of MS2 coat protein", "setting": "input ligand: none", "value": 47.4, "unit": "nM"}]}, {"sequence": "ACAUGAGGAUCACCCAUGUCUGGCUGGUCCGCUCCGGCUGUUGAGGAUAUAGCUCGGUGUCCGCGCUAGAAGGUGAGGGCUGGC [Aenatbe mod 34] (Eterna round: R96, puzzle: Exclusion NG 3)", "values": [{"measurement": "apparent KD of MS2 coat protein", "setting": "input ligand: FMN 200 uM", "value": 32.4, "unit": "nM"}, {"measurement": "apparent KD of MS2 coat protein", "setting": "[1]", "value": 19.5, "unit": "nM"}, {"measurement": "apparent KD of MS2 coat protein", "setting": "input ligand: none", "value": 31.9, "unit": "nM"}]}, {"sequence": "ACAUGAGGAUCACCCAUGUCUGGCUGGUCCGUCUCGGCUGUCGAGGAUAUGGCUCGGUGUCCGCGCUAGAAGGCGGGAGCUGGA [Aenatbe mod 78] (Eterna round: R96, puzzle: Exclusion NG 3)", "values": [{"measurement": "apparent KD of MS2 coat protein", "setting": "input ligand: FMN 200 uM", "value": 193, "unit": "nM"}, {"measurement": "apparent KD of MS2 coat protein", "setting": "[1]", "value": 43, "unit": "nM"}, {"measurement": "apparent KD of MS2 coat protein", "setting": "input ligand: none", "value": 68.2, "unit": "nM"}]}, {"sequence": "ACAUGAGGAUCACCCAUGUGAAAACAAUGGCUGACUUUGAGAUAGGAUAUAUGUGCAUAUCAAACAUAGAAGGGUCAUUACUGG [Deportation 90 - Jieux - Exclusion NG 3] (Eterna round: R96, puzzle: Exclusion NG 3)", "values": [{"measurement": "apparent KD of MS2 coat protein", "setting": "input ligand: FMN 200 uM", "value": 41.4, "unit": "nM"}, {"measurement": "apparent KD of MS2 coat protein", "setting": "[1]", "value": 25.9, "unit": "nM"}, {"measurement": "apparent KD of MS2 coat protein", "setting": "input ligand: none", "value": 47.2, "unit": "nM"}]}, {"sequence": "ACAUGAGGAUCACCCAUGUGAACGAAAAGGCUCAUGUAGAGUGAGGAUAUGUGAGACGAACGAGAACAGAAGGCACAAGACAGG [Deportation 1 - Jieux - Exclusion NG 3] (Eterna round: R96, puzzle: Exclusion NG 3)", "values": [{"measurement": "apparent KD of MS2 coat protein", "setting": "input ligand: FMN 200 uM", "value": 20.7, "unit": "nM"}, {"measurement": "apparent KD of MS2 coat protein", "setting": "[1]", "value": 19.5, "unit": "nM"}, {"measurement": "apparent KD of MS2 coat protein", "setting": "input ligand: none", "value": 35.4, "unit": "nM"}]}, {"sequence": "ACAUGAGGAUCACCCAUGUGACAAUAAUGGCUGAUACAGAGACAGGAUAUACGUGAAUAUCUAACGUAGAAGGGUCAUGACUGG [Deportation 70 - Jieux - Exclusion NG 3] (Eterna round: R96, puzzle: Exclusion NG 3)", "values": [{"measurement": "apparent KD of MS2 coat protein", "setting": "input ligand: FMN 200 uM", "value": 30.5, "unit": "nM"}, {"measurement": "apparent KD of MS2 coat protein", "setting": "[1]", "value": 35.8, "unit": "nM"}, {"measurement": "apparent KD of MS2 coat protein", "setting": "input ligand: none", "value": 41.9, "unit": "nM"}]}, {"sequence": "ACAUGAGGAUCACCCAUGUGACCACGAUGGCUGAUGUAAAGACAGGAUAUGUGUGAAUAUCUAUCACAGAAGGGUCUUGACUGG [Deportation 55 - Jieux - Exclusion NG 3] (Eterna round: R96, puzzle: Exclusion NG 3)", "values": [{"measurement": "apparent KD of MS2 coat protein", "setting": "input ligand: FMN 200 uM", "value": 24.1, "unit": "nM"}, {"measurement": "apparent KD of MS2 coat protein", "setting": "[1]", "value": 22, "unit": "nM"}, {"measurement": "apparent KD of MS2 coat protein", "setting": "input ligand: none", "value": 30.6, "unit": "nM"}]}, {"sequence": "ACAUGAGGAUCACCCAUGUGACCAUGAUGGCUGAUGUAGAGCUAGGAUAUGAGUGAAUAUCUAUCUCAGAAGGAGCUUGACUGG [Deportation 48 - Jieux - Exclusion NG 3] (Eterna round: R96, puzzle: Exclusion NG 3)", "values": [{"measurement": "apparent KD of MS2 coat protein", "setting": "input ligand: FMN 200 uM", "value": 16.7, "unit": "nM"}, {"measurement": "apparent KD of MS2 coat protein", "setting": "[1]", "value": 15.4, "unit": "nM"}, {"measurement": "apparent KD of MS2 coat protein", "setting": "input ligand: none", "value": 21.3, "unit": "nM"}]}, {"sequence": "ACAUGAGGAUCACCCAUGUUUUUCGGGUACUCUUUUUACAGCAAGGAUAUGCAUUAUUUAUGUACGCAGAAGGUGCUUUACGUC [JR_ExcNG3_Sub065] (Eterna round: R96, puzzle: Exclusion NG 3)", "values": [{"measurement": "apparent KD of MS2 coat protein", "setting": "[1]", "value": 82.9, "unit": "nM"}]}]}
